Assay results published in patent US20150017171A1 (CHINA SYNTHETIC RUBBER, published 2015).

T1: recombinant human PLVAP51-442 protein (extracellular domain, His tag removed by thrombin) (human, UniProt Q9BX97 51-442)
T1 construct: also called recombinant PLVAP protein; recombinant PLVAP
T1 sequence: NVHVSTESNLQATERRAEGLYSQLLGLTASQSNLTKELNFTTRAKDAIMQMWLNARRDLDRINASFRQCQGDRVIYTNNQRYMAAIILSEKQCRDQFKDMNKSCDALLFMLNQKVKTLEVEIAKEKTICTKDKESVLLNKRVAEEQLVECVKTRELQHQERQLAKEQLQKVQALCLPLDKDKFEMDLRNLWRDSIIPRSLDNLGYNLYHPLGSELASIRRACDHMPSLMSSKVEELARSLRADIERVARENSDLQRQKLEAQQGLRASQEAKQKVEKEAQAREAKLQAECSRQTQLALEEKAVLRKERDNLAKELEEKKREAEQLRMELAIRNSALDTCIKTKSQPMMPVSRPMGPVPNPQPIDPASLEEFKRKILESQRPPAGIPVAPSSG

T2: peptide encompassing amino acids 378 to 404 of human PLVAP, expressed by an E. coli clone of the Novatope … (human)
T2 peptide: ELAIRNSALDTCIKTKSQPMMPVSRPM

T3: His-tagged human PLVAP51-292 (human, UniProt Q9BX97 51-292)
T3 construct: also called N-terminal portion of the extracellular domain; not shown: His tag and vector residues of pET-15b
T3 sequence: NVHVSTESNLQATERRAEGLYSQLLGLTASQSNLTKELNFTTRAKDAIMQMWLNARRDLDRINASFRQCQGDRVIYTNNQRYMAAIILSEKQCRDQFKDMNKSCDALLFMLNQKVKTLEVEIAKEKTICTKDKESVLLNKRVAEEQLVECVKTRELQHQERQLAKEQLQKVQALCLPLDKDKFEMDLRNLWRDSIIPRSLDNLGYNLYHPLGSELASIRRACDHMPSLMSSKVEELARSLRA

T4: His-tagged human CEACAM6 (human, UniProt P40199 35-320, limits assumed)
T4 construct: also called human CEACAM6 protein unrelated to PLVAP (lane 4); not shown: His tag
T4 sequence (looked up): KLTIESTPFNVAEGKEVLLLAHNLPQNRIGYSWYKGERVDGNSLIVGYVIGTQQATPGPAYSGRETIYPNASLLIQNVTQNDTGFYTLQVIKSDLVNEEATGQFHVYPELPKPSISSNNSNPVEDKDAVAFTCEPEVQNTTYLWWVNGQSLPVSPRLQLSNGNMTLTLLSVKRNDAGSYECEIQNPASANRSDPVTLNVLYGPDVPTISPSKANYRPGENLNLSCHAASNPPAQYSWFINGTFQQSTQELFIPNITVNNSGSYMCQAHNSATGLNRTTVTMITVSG

B1: KFCC-GY5 monoclonal antibody (murine, hybridoma ATCC PTA-9964) (antibody, mouse IgG1, V domains shown)
VH: QVQLQQPGAELVRPGASVKLSCKASGYTFTSNYINWVKQRPGQGLEWIGNIYPSDGFTNYNQKFKDRATLTVDKSSSTAYMQLSSPTSEDSAVYYCTRNFDVWGAGTTVTVSS
VL: DVVMTQTPLSLPVSLGDQASISCRSSQSLVHSNGNTYLQWYLQKPGQSPKLLIYTVSNRFSGVPDRFSGSGSGPDFTLKISRVEAEDLGVYFCSQSTHVPFTFGSGTKLEIK
notes: also called GY5 mAB; KFCC-GY5 mAb
B2: chimeric KFCC-GY5 antibody (CSR02) (antibody, human IgG4, V domains shown)
VH: B1 VH
VL: B1 VL
notes: also called Chimeric GY5; chimeric IgG4-GY5
B3: KFCC-GY4 monoclonal antibody (murine, hybridoma ATCC PTA-9963) (antibody, mouse IgG1, V domains shown)
VH: EVQLQQSGAEFVRSGASVKLSCTASGFNIKDYYIHWVKQRPEQGLEWIGWIDPENGDIEYAPKFQGKATMTADTSSNTAYLQFSSLTSEDTAVYYCLYQEGSWGQGTTLTVSS
VL: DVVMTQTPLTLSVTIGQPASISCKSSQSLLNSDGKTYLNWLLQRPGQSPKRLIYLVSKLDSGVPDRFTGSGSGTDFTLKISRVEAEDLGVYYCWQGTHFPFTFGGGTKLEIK
notes: also called GY4 mAB; KFCC-GY4 mAb
B4: chimeric KFCC-GY4 antibody (CSR01) (antibody, human IgG4, V domains shown)
VH: B3 VH
VL: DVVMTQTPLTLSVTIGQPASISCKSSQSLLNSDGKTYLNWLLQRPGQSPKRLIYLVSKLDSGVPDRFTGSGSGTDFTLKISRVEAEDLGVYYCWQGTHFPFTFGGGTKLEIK
notes: also called Chimeric GY4; chimeric IgG4-GY4
B5: humanized KFCC-GY5 antibody CSR02-VH4/VK3 (antibody, human IgG4, V domains shown)
VH: QVQLVQSGSELKKPGASVKVSCKASGYTFTSNYINWVRQAPGQGLEWIGNIYPSDGFTNYNQKFKDRVTITVDKSTSTAYMELSSLRSEDTAVYYCTRNFDVWGQGTTVTVSS
VL: DVVMTQSPLSLPVTLGQPASISCRSSQSLVHSNGNTYLQWYLQKPGQSPQLLIYTVSNRFSGVPDRFSGSGSGPDFTLKISRVEAEDVGVYYCSQSTHVPFTFGQGTKLEIKR
notes: also called VH4/VK3 (GY5 variant); VH4/VK3 IgG4

Key:
[1] = target: T1, recombinant human PLVAP51-442 protein …; assay: competition ELISA on coated recombinant PLVAP; competitor biotinylated murine KFCC-GY5
Protocol: (§1) The binding of KFCC-GY4 and KFCC-GY5 human antibody variants to recombinant PLVAP was assessed in a competition ELISA. Either a dilution series of variant or control antibody from 30 μg/m to 0.014 μg/m (final concentration) was premixed with a constant concentration of biotinylated murine KFCC-GY4 (0.3 μg/ml, final concentration) or a dilution series of variant or control antibody from 10 μg/m to 0.004 μg/ml (final concentration) was premixed with a constant concentration of biotinylated murine KFCC-GY5 (0.1 μg/ml, final concentration) before incubating for 1 hour at room temperature on a Nunc Immuno MaxiSorp 96 well flat bottom microtitre plate (Fisher Catalogue No. DIS-971-030J) precoated with 1 μg/m recombinant “protein P” diluted in PBS. The binding of the biotinylated mAb was determined by detection with streptavidin-HRP and TMB substrate. After stopping the reaction with 3M HCl, absorbance was measured at 450 nm on a Dynex Technologies MRX TC II plate reader and the binding curves of the test antibodies compared against the mouse reference standard.
Similarly, the four lead variants of IgG4-GY5 and murine KFCC-GY5 antibodies have very similar binding profiles (FIG. 49). All of the lead variants shown are within two-fold of the original murine monoclonal antibody.

[2] = target: T1, recombinant human PLVAP51-442 protein …; assay: ANTQ300 quartz crystal microbalance
[3] = target: T2, peptide encompassing amino acids 378 to …; assay: colony blot of Novatope fragment library
Protocol: PCR was performed using the following thermal cycle: 94° C. for 5 min, followed by 35 cycles of 94° C. for 30 s, 56° C. for 30 s and 72° C. for 60 s. DNA was purified with the Qiaquick PCR purification kit (Qiagen, Surrey, UK) and then used in the construction of a PLVAP Novatope library according to the manufacturer's instructions (Novagen, Merck Biosciences Ltd., Beeston, UK). Briefly, purified PCR product was digested with DNAse I in the presence of Mn²⁺ and fragments between 50-150 base pairs (bp) were gel purified using a gel extraction kit (Qiagen). The DNA fragments were end-filled using T4 DNA polymerase and Tth polymerase to add a single dA residue to each 3′ end and then ligated into the pScreen 1b(+)T-vector (Novagen), which is designed to express small inserts as a carboxy-terminal fusion to the T7 bacterial phage gene 10 capsid protein. The library was transformed into NovaBlue (DE3) cells and plated onto Luria-Bertani (LB) media plates containing carbenicillin (50 μg/ml) and tetracycline (12.5 μg/m). The resulting human PLVAP cDNA library was screened (approximately 10⁴ colonies for each antibody) using the method described in the Novatope manual: Colonies expressing PLVAP fragments were transferred to nitrocellulose filters by contact with the colony for 1 min. Bacterial colonies on the filters were lysed by incubating in a sealed chloroform vapor chamber for 15 min. […]

[4] = target: T3, His-tagged human PLVAP51-292; assay: immunoblot of total protein extract of E. coli expressing the His-tagged protein
Excerpt: (§2) Molecular weight protein standards are resolved in Lane M.

[5] = target: T4, His-tagged human CEACAM6; assay: as above
Excerpt: as §2

[6] = target: T1, recombinant human PLVAP51-442 protein …; assay: Biacore T-100
[7] = target: T1, recombinant human PLVAP51-442 protein …; assay: competition ELISA on coated recombinant PLVAP; competitor biotinylated murine KFCC-GY5 at 0.1 µg/ml
Protocol: (§3) The binding of chimeric KFCC-GY4 and KFCC-GY5 antibodies to recombinant PLVAP protein was assessed in a competition ELISA. Either a dilution series of chimeric or control antibody from 30 μg/ml to 0.014 μg/m (final concentration) was premixed with a constant concentration of biotinylated murine KFCC-GY4 (0.3 μg/ml, final concentration) or a dilution series of chimeric or control antibody from 10 μg/ml to 0.004 μg/m (final concentration) was premixed with a constant concentration of biotinylated murine KFCC-GY5 (0.1 μg/ml, final concentration) before incubating for 1 hour at room temperature on a Nunc Immuno MaxiSorp 96 well flat bottom microtitre plate (Fisher Catalogue No. DIS-971-030J) precoated with 1 μg/ml recombinant PLVAP protein diluted in PBS. The binding of the biotinylated mAb was determined by detection with streptavidin-HRP and TMB substrate.
(§4) Therefore, the correct variable region sequences for the parent murine monoclonal antibodies were identified and cloned.

[8] = target: T1, recombinant human PLVAP51-442 protein …; assay: competition ELISA on coated recombinant PLVAP; competitor biotinylated murine KFCC-GY4
Protocol: as §1
The five lead variants of IgG4-GY4 and murine KFCC-GY4 antibodies have very similar binding profiles (FIG. 48). All of the lead variants shown are within two-fold of the original murine monoclonal antibody.

[9] = target: T1, recombinant human PLVAP51-442 protein …; assay: competition ELISA on coated recombinant PLVAP; competitor biotinylated murine KFCC-GY4 at 0.3 µg/ml
Protocol: as §3, §4

Binder | IC50 [1] [µg/mL] | IC50 (ratio compared to GY5 mAb) [1] | Kd [2] [nM] | binding result [3] | binding result [4] | binding result [5] | Kd [6] [nM] | koff [6] [s⁻¹] | kon [6] [M⁻¹ s⁻¹] | IC50 [7] [µg/mL] | IC50 [8] [µg/mL] | IC50 (ratio compared to GY4 mAb) [8] | IC50 [9] [µg/mL]
B1 | 0.38 | 1 | 41 | binds | no binding | no binding | 59.8 | 0.000414 | 6930 | 0.49 |  |  | 
B2 |  |  |  |  |  |  | 0.978 | 3.01e-05 | 30700 | 0.4 |  |  | 
B3 |  |  | 60 |  | no binding | no binding | 464 | 0.00701 | 15100 |  | 1.82 | 1 | 0.98
B4 |  |  |  |  |  |  | 406 | 0.00212 | 5210 |  |  |  | 0.8
B5 | 0.43 | 1.13 |  |  |  |  |  |  |  |  |  |  | 
